# Measurements: publication PMC7927982
# Molecular target: T1, LARP1 La-Module (Homo sapiens, UniProt Q6PKG0-3 310-540)
# Assay: EMSA
row,Binder,binding result
1,CCUUCUCCCCGGCGGUUAGUGCUGAGAGUGCGGAGUGUGUG (ssRNA) [PABPC1 42-mer],no binding
2,CCUCUUUUCCGUGGCGCCUCGGAGGCGUUCAGCUGCUUCAAG (ssRNA) [RPS6 5'UTR],binds
3,AAGCGGCUGCCGAAG (ssRNA) [RPL13A 5'UTR delTOP],no binding
4,CUCUCUUCCACAGGAGGCCUACACGCCGCCGCUUGUGCUGCAGCC (ssRNA) [RPS18 5'UTR],no binding
5,AAGAUUUUUUGAGUAACAAAU (ssRNA) [RPS6 3'UTR],no binding
6,GUGGCGCCUCGGAGGCGUUCAGCUGCUUCAAG (ssRNA) [RPS6 5'UTR delTOP],no binding
7,CCUUUUCCAAGCGGCUGCCGAAG (ssRNA) [RPL13A 5'UTR],binds

# Molecular target: T1, LARP1 La-Module
# Assay: competition
row,Binder,binding result
1,GGGGGGGGGGGGGGGGGGG (ssRNA) [poly(G) 19-mer],binds

# Molecular target: T1, LARP1 La-Module
# Assay: EMSA
# Remark: another data set of the same source
row,Binder,Kd
1,AAAAAAAAAAAAAAAAAAAAAAAAA (ssRNA) [poly(A) 25-mer],40 ± 1 nM
